According to paper PMC6326804, “Structural insights into a unique preference for 3′ terminal guanine of mirtron in Drosophila TUTase tailor” (Nucleic Acids Research, 2018):

What was measured:
Tailor-C [1] = biological target: T1, Tailor-C (Drosophila melanogaster, UniProt Q9VI58, D343A); test: X-ray crystal structure (crystal soaking), […] A; type: binding; details: D343A crystals soaked with 10 mM UTP and 20 mM MgCl2 for 10 min; active site of catalytic groove
T1 construct: core catalytic domain, residues 202-560; N-terminal 8xHis-SUMO tag cut by ULP1; E. coli host

Tailor-ZnC = biological target: T2, Tailor-ZnC (Drosophila melanogaster, UniProt Q9VI58); test: in-vitro nucleotide transferase assay, denaturing PAGE of Cy5-labelled RNA; type: biochemical; details: 1 mM UTP, 200 nM Cy5 truncated pre-mir-1003, 10 mM MgCl2, pH 7.2, 25 °C
T2 construct: core domain with possible N-terminal C2H2 zinc finger, residues 137-560; N-terminal 8xHis-SUMO tag cut by ULP1; E. coli host

Tailor-C V328R = Tailor-C V328R (Drosophila, UniProt Q9VI58 202-560, V328R); test: EMSA; no Mg2+ added; EMSA: 25 mM Tris-HCl pH 7.2, 100 mM NaCl, 5 mM DTT, 500 nM Cy5-RNA, 0-2.5 uM protein, 30 min on ice; 6% native gel at 4 C; details: protein: recombinant; tags: 8xHis-SUMO tag removed by ULP1; label: 5'-Cy5; single strand
Tailor-C V328L = Tailor-C V328L (Drosophila, UniProt Q9VI58 202-560, V328L); test: as above; details: protein: recombinant; tags: 8xHis-SUMO tag removed by ULP1; label: 5'-Cy5; single strand
Tailor-C V328I = Tailor-C V328I (Drosophila, UniProt Q9VI58 202-560, V328I); test: as above; details: protein: recombinant; tags: 8xHis-SUMO tag removed by ULP1; label: 5'-Cy5; single strand
Tailor-C [2] = biological target: Tailor-C (Drosophila, UniProt Q9VI58 202-560); test: crystal structure; EMSA: 25 mM Tris-HCl pH 7.2, 100 mM NaCl, 5 mM DTT, 500 nM Cy5-RNA, 0-2.5 uM protein, 30 min on ice; 6% native gel at 4 C; details: protein: recombinant; tags: 8xHis-SUMO tag removed by ULP1; single strand
Sequence of Tailor-C (Drosophila, UniProt Q9VI58 202-560) (Q9VI58 202-560): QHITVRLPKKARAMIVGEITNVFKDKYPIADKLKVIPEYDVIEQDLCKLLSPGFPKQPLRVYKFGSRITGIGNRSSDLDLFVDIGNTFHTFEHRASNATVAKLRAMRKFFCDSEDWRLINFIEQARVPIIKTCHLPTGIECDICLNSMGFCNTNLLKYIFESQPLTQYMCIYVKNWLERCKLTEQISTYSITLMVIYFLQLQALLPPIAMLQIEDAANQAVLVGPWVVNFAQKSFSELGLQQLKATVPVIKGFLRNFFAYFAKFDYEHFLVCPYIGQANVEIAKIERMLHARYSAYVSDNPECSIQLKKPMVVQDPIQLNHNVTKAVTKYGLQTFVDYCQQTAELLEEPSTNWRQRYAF

T2 sequence (Q9VI58 137-560): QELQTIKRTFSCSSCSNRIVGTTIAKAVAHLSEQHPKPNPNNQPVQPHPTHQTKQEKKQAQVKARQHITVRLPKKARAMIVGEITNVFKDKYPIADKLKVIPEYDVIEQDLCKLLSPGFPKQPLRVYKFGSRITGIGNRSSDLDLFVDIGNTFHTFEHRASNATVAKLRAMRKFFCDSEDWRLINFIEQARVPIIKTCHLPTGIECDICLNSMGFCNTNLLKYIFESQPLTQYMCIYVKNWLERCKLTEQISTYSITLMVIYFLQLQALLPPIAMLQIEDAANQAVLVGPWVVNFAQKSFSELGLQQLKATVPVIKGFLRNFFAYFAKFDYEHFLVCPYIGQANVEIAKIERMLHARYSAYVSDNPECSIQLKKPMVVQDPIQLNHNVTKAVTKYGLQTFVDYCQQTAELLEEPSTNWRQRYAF
Sequence of Tailor-C V328R (Q9VI58 202-560 V328R): as the sequence (Q9VI58 202-560) above, with V127R counted along it
T1 sequence (Q9VI58 202-560 D343A): as the sequence (Q9VI58 202-560) above, with D142A counted along it
Sequence of Tailor-C V328L (Q9VI58 202-560 V328L): as the sequence (Q9VI58 202-560) above, with V127L counted along it
Sequence of Tailor-C V328I (Q9VI58 202-560 V328I): as the sequence (Q9VI58 202-560) above, with V127I counted along it

O=c1ccn([C@@H]2O[C@H](COP(=O)(O)OP(=O)(O)OP(=O)(O)O)[C@@H](O)[C@H]2O)c(=O)[nH]1 [UTP]
X-ray crystal structure (crystal soaking), 1.74 A (Tailor-C [1]): The crystals of the complex of D343A with UTP were obtained by soaking crystals
in-vitro nucleotide transferase assay, denaturing PAGE of Cy5-labelled RNA (Tailor-ZnC): Purified Tailor-ZnC, Tailor-C and mutants were assayed for oligouridylation activity

CAUAUUCACAG (ssRNA) [truncated miR-1003 (3'G)]
binding result (Tailor-C V328R): binds
binding result (Tailor-C V328L): binds
binding result (Tailor-C V328I): binds

AGUU (ssRNA)
binding result (Tailor-C [2]): binds

AGU (ssRNA)
binding result (Tailor-C [2]): binds

UUUU (ssRNA) [U4]
binding result (Tailor-C [2]): binds
